From FireProtDB (doi:10.1021/bi035651x)
Values joined by “and” are separate entries in the source; they are usually repeats but may differ in a detail not shown here. Equal values may be shown once.

B1: Adenosine deaminase, P03958 (parent)
chain: MAQTPAFNKPKVELHVHLDGAIKPETILYFGKKRGIALPADTVEELRNIIGMDKPLSLPGFLAKFDYYMPVIAGCREAIKRIAYEFVEMKAKEGVVYVEVRYSPHLLANSKVDPMPWNQTEGDVTPDDVVDLVNQGLQEGEQAFGIKVRSILCCMRHQPSWSLEVLELCKKYNQKTVVAMDLAGDETIEGSSLFPGHVEAYEGAVKNGIHRTVHAGEVGSPEVVREAVDILKTERVGHGYHTIEDEALYNRLLKENMHFEVCPWSSYLTGAWDPKTTHAVVRFKNDKANYSLNTDDPLIFKSTLDTDYQMTKKDMGFTEEEFKRLNINAAKSSFLPEEEKKELLERLYREYQ

Variants of: B1
Conditions: Mus musculus; pH 7.4; 20 °C; Urea; NMR; Tris-HCl 20 mM; structure 2ADA; whole UniProt chain shown

| Variant | ddG of mutation (higher = less stable) | denaturant m value | denaturant midpoint (higher = more stable) | unfolding free energy |
| --- | --- | --- | --- | --- |
| W161F | -8.7 kcal/mol and -5.98 kcal/mol | 2.48 kcal/mol/M and 1.87 kcal/mol/M | 5.3 M and 5.57 M | 13.1 kcal/mol and 10.4 kcal/mol |
| W272F | – | 1.05 kcal/mol/M and 2.25 kcal/mol/M | 5.42 M and 5.58 M | 5.69 kcal/mol and 12.6 kcal/mol |
| W117F | -2.96 kcal/mol and -6.52 kcal/mol | 1.31 kcal/mol/M and 1.96 kcal/mol/M | 5.65 M and 5.59 M | 7.4 kcal/mol and 11 kcal/mol |
